The source of these data is PMC2927863.

Data set [1] deals with T1, GST-NHR-6 (DBD+LBD) (Caenorhabditis elegans, UniProt P41829 260-619).
T1 sequence: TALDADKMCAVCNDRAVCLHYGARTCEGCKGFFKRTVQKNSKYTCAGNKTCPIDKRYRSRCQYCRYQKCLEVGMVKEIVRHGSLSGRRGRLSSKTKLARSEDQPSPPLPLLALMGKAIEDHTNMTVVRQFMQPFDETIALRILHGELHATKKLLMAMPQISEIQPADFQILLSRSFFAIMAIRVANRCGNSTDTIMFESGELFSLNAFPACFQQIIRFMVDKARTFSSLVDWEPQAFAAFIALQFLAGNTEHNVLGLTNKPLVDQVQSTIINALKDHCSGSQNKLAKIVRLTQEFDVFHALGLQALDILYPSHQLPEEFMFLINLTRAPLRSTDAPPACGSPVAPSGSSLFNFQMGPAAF
In words: competition.

Another data set addresses T2, GST-NHR-6 (C288S) (Caenorhabditis elegans, UniProt P41829 260-619, C288S).
T2 sequence: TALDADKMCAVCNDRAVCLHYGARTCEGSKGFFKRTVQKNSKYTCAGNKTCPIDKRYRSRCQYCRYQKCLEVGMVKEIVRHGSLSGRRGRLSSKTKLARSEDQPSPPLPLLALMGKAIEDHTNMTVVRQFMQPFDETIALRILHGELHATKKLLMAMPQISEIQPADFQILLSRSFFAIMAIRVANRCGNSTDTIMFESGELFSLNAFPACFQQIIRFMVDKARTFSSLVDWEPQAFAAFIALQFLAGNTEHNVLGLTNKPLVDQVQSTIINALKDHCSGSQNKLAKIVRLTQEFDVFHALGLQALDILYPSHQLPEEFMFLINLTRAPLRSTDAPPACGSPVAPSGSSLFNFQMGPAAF
In words: EMSA. (Mobility shift assays separate free from complexed probe on a gel.)

Data set [2] concerns the target T1, GST-NHR-6 (DBD+LBD). In words: EMSA.

B1: mutant NBRE 26-mer (dsDNA)
DNA 1: GAGTTTTACCAGGTCATGCTCAATTT
DNA 2: AAATTGAGCATGACCTGGTAAAACTC
Consider B1, for which, in the data set with GST-NHR-6 (DBD+LBD) [1], the binding result was “no binding”.

B2: NBRE 26-mer (dsDNA)
DNA 1: GAGTTTTAAAAGGTCATGCTCAATTT
DNA 2: AAATTGAGCATGACCTTTTAAAACTC
As for B2, the binding result was “no binding” with GST-NHR-6 (C288S) and “binds” in the data set with GST-NHR-6 (DBD+LBD) [2].
